Assay: yeast display, Sf9 membrane polyspecificity reagent, FACS + sequencing; frameworks hold sequencing errors
Outline: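 Galactose-induced (36–48 hours) yeast carrying a synthetic nanobody display library were exposed to 10% biotinylated, detergent-solubilized Sf9 membrane reagent at 4 °C for 1 hour. FACS followed streptavidin microbead enrichment, using low and high (top ~1%) gates for expression (anti-HA) and reagent binding (streptavidin). Colony PCR, MiSeq 2 × 250 sequencing and CDR-length filtering followed. Labels for polyreactivity reflect the gate of origin.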
With “QVQLVESGGGLVQAGGSLRLSCAASGFIFLVNAMGWYSGAPGKERELVAAISKSTGGTYYADSVKGRFTISRDNAKNTVYLQMNSLKPEDTAVYYCAADEVYPVQRDMDYWGQGTQVTVSS” the “polyreactivity (PSR sort gate)” value was “low polyreactivity”.
In the case of “QVQLVESGGGLVQAGGSLRLSCAASGFIFLYNAMGWDRQARGKERELVAAITSSGGTTYYADSVKGRFTISRDNAKNTVYLQINSLKPEDTAVYYCAARYTGRNGGSTTPEYDYWGQGTQVTVSS”, the “polyreactivity (PSR sort gate)” value is reported as “low polyreactivity”.
For “QVQLVESGGGLVQAGGSLRLSCAASGFIFLYYAMGWYRQAPGKERELVAAISSSGGSTYYADSVKGRFTISRDNAKNTVYLQMNSLKPEDTAVYYCAARRKGKARVPQYDYWGQGTQVTVSS”, the “polyreactivity (PSR sort gate)” value was “high polyreactivity”.
With “QVQLVESGGGLVQAGGSLRLSCAASGFIFNHYRMGWYRPAPGKEREFVAAISWSGGSTYYADSVKGRFTISRDNAKNTVYLQMNSLKPEDTAVYYCAASYNGLWHGDYDYWGQGTQVTVSS” the “polyreactivity (PSR sort gate)” value was “low polyreactivity”.
With “QVQLVESGGGLVQAGGSLRLSCAASGFIFNIYGMGWYRQAPGKERELVAAISRGGSTYYADSVKGRFTISRDNAKNTGYLQMNSLTPEDTAVYYCAAVGYTLEYEYWGQGTQVTVSS” the “polyreactivity (PSR sort gate)” value was “low polyreactivity”.
For “QVQLVESGGGLVQAGGSLRLSCAASGFIFNLYAMGWYRQAPGKERELVAAISSGGGTSYADSVKGRFTISRDNAKNTVYLQMNSLKPEDTAVYYCAAGYKRRYYWKGYTRYDYWGQGTQVTVSS”, the “polyreactivity (PSR sort gate)” value was “high polyreactivity”.
For “QVQLVESGGGLVQAGGSLRLSCAASGFIFNRYAMGWYRQAPGKERELVADITGGSTYYADSVKGRFTISRDNAKNTVYLQMNSLKPEDTAVYYCAADVLRISTQLFRGPGFDSWGQGTQVTVSS”, the “polyreactivity (PSR sort gate)” value was “low polyreactivity”.
With “QVQLVESGGGLVQAGGSLRLSCAASGFIFNVYAMGWYRQAPGKERELVAAISQRGGRTYYADSVKGRFTISRDNAKNTVYLQMNSLKPEDTAVYYCKLFYPKHGYWGQGTQVTVSS” the “polyreactivity (PSR sort gate)” value was “high polyreactivity”.
In the case of “QVQLVESGGGLVQAGGSLRLSCAASGFIFNYYLGWYRQAPGKEREWVAAISQSGDSTYYADSVKGRFTISRDNAKNTVYLQMNSQKPEDTAVYYCAAETSPDYRGVTYYYWGQGTQVTLSS”, the “polyreactivity (PSR sort gate)” value is reported as “high polyreactivity”.
With “QVQLVESGGGLVQAGGSLRLSCAASGFIFPAYAMGWYRPAPGKERELVAAISKSGGRTYYADSVKGRFTISRDNAKNTVYIQMKSLKPEYTAVYYCDARMYNYDTSSSFDYWGQGTQVTVSS” the “polyreactivity (PSR sort gate)” value was “high polyreactivity”.
With “QVQLVESGGGLVQAGGSLRLSCAASGFIFPIYAMGWYRQAPGKERELVAAITSNGASTYYADSVKGRFTISRDNAKNTVYLQMNSLKPEDTAVYYCARDPSIRALEHDYWGQGTKVTVSS” the “polyreactivity (PSR sort gate)” value was “high polyreactivity”.
For “QVQLVESGGGLVQAGGSLRLSCAASGFIFPNNAMGWYRQAPGKERELVARISYGGGDTHYADSVKGRFTISRDTAKNTVYLQMNSLKPEDTAVYYCAVKDGQDDYWGQGTQVTVSS”, the “polyreactivity (PSR sort gate)” value was “low polyreactivity”.
In the case of “QVQLVESGGGLVQAGGSLRLSCAASGFIFPRNVMGWYRQAPGKERELVAAISRSGGSTYYADSVKGRITISRDNAKNTVYLQMNSLKPEDTAVYYCDKRTFYNGEYWGQGTQVTVSS”, the “polyreactivity (PSR sort gate)” value is reported as “high polyreactivity”.
With “QVQLVESGGGLVQAGGSLRLSCAASGFIFPRYAMGWYRQAPGKERELVAAISYTGGSTYYADSVKGRFTISRDNAKNTVSLQMNSLKPEDTAVYYCYAYFLSQYQRGYRDDYWGQGTQVTVSS” the “polyreactivity (PSR sort gate)” value was “high polyreactivity”.
In the case of “QVQLVESGGGLVQAGGSLRLSCAASGFIFPTNTMGWYRQAPGKEREFVARITRSGTNTYYADSVKGRFTISRDNAKNTVYLQMNSLKAEDTAVYYCARRGTSSYRRYWLDSASNMDYWGQGTQVTVSS”, the “polyreactivity (PSR sort gate)” value is reported as “high polyreactivity”.
With “QVQLVESGGGLVQAGGSLRLSCAASGFIFPTYAMGWYRQAPGKERELVAAISYRGGITSYADSVKGRFTISRDNAKNTVYLQMNSLKPEDTAVYYCAARGAWGYEYWGQGTQVTVSS” the “polyreactivity (PSR sort gate)” value was “low polyreactivity”.
In the case of “QVQLVESGGGLVQAGGSLRLSCAASGFIFPVNAMGWSRQAPGKERELVAGITSSGGSTYYADSVKGRFTISRDNAKNTVYLQMNSRKPEDTAVYYCNAYIDALPVSYHFDYWGQGTQLTVSS”, the “polyreactivity (PSR sort gate)” value is reported as “low polyreactivity”.
For “QVQLVESGGGLVQAGGSLRLSCAASGFIFPVYAMGWYRQAPGKERELVAAITDSGDSTYYADSVKGRFTISRDNAKNTVYLQMNSLKPEDTAVYYCAAQVQYPRWYRSGKYDYWGQGTQVTVSS”, the “polyreactivity (PSR sort gate)” value was “low polyreactivity”.
With “QVQLVESGGGLVQAGGSLRLSCAASGFIFPWYAMGWYRQAPGKERELVAAISWSGGSTYYADSVKWRFTISRDNAKNTVYLQMNSLKPEDTAVYYCNDLYGRPGYDYWGQGTQVTVSS” the “polyreactivity (PSR sort gate)” value was “low polyreactivity”.
For “QVQLVESGGGLVQAGGSLRLSCAASGFIFPWYTRGWYRQAPGKERELVAVINQSGGSTYYADSVKGRFTISRDNAKNTVYLQMNSLKPEDTAVYYCAAKSYRGSVKLRWSERGYWGQGTQVTVSS”, the “polyreactivity (PSR sort gate)” value was “high polyreactivity”.
With “QVQLVESGGGLVQAGGSLRLSCAASGFIFPYYAMGLYRQAPGKERELVAAITFSATRTYYADSVKGRFTISRDNAKNTVYLQMNSLKPEDTAVYYCKARGGVYGSYFEFNYWRQGTQVTVSS” the “polyreactivity (PSR sort gate)” value was “low polyreactivity”.
With “QVQLVESGGGLVQAGGSLRLSCAASGFIFPYYAMGWYRQAPGKEREFVAAITFSATRTYYADSVKGRFTISRDNAKNTVYLQMNSLKPEDTAVYYCNARGGVYGSYFEFNYWGQGTQVTVSS” the “polyreactivity (PSR sort gate)” value was “low polyreactivity”.

Reference: the nanobody polyreactivity screen of Harvey et al. (2022)
